{"source": "the DeepSol protein solubility set"}
{"assay": "soluble on expression in E. coli; label from the status in PepcDB or PDB records"}
{"sequence": "MGSDKIHHHHHHMTTLISFLGKGIADKTTGYRTATYRFDDDSKHTTPYFGLALAGYLRPERLILVGTAGSMWDVFFEQQDASDDDVLALIDAVRESRVDADMLSAQEKRLTKRLGLPVICRLIPYARDAAEQTEVLLTLAKLVHRSEEVFLDVTHGFRHLPMLALVAARYLAHVKDVKVRGLYYGALEMTSTNGETPVLQLDGMLQMLDWVESLATYNKDGDYGVFASLLQQDGLPEGKAKQLTRAAYFERSSNPVKARETLGSVFSAIKTHNGPMGVLFRDALTERINWFKEPDRAAWELALADAYLERRDYVRAVIYLYESFVTRAVLEHKLNPNDFSERDEAWKDARQDNKQVRKLEYLRNALAHGIKSDDKEIIRMVNDENCLDDQLKKFRRSLFN", "soluble on expression in E. coli": "not soluble"}
{"sequence": "MMSTPALRPYLPEDAAVTAAIFVASIEQLTADDYSEEQQEAWASAADDEAKFAARLSGQLTLIATLQGVPVGFASLKGPDHIDMLYVHPDYVGRDVGTTLIDALEKLAGARGALILTVDASDNAAEFFAKRGYVAKQRNTVSINGEWLANTTMTKSLADSAAPGASS", "soluble on expression in E. coli": "soluble"}
{"sequence": "MSLSVLNAKECVSPITRSVKYHQQSAEIRALQLQSYKMAKMALDNNLKLVKDKKPAVILDLDETVLNTFDYAGYLIKNCIKYTPETWDKFEKEGSLTLIPGALDFLEYANSKGVKIFYISNRTQKNKAFTLKTLKSFKLPQVSEESVLLKEKGKPKAVRRELVAKDYAIVLQVGDTLHDFDAIFAKDAKNSQEQRAKVLQNAQKFGTEWIILPNSLYGTWEDEPIKAWQNKKEGHHHHHH", "soluble on expression in E. coli": "soluble"}
{"sequence": "MSLKPKRILLVNEQRSFQVMMKAMLINIGISRITYANSAEEARRRCQKETFDIYLLDYELGVGENGRQLLESLRDQKLIPPQSVVIMVSGDSSRAMVLSALEAEPDEYLMKPFSQEQFSFRLKRALARRQALESVFSALAKEDLPTLLAACAERADAVPRFANFCRCLQADTQLKLGQAKEARSLMRQLLAGQENSWARLTLGKACHTLGLNEEAVSHLQATLKNTPLMVEAHLWLAESQLALGNDEQAQQELKRAVDISPQSVQLSRRLAEVCLLRHDYAQAKDVLLSLIDLSRNSIHRTPHYLGAYIQSLTLYALNSNEGHHHHHH", "soluble on expression in E. coli": "not soluble"}
{"sequence": "MSLATTLVLGGGYAGMRAVKFLQKSLPTEDEIILVDQTPTHTEKTNLHEVAAGTIAPDRITYQIPDIIGKRVQFVQATVKNVDIEQKQVTFEDHPEMTYDYLVLALGFQSETFGVAGADENALPMDDLATSQAVYEHLEERFKAYRTSKDKNDLKIAVCGAGFTGIELLGELTQTLPRLQAKYQTPAAKLVCLERMPSILPMFTQELRDYALKFMEKNNVEMRLGAVIEAIKPGAVVYSDADKNEHEFTANTIIWTVGVSGSHVIADSGFDQRRNRVVVKPDLSLEGHPEVFIVGDVAAVMDPESNRPYPTTAQIALAAGEQAAKNIGALRHNQATATFHYESSGTVASLSDRDGIGEIFSSNKPVHGYAASALKKIITDRSLLESAHLGTVFSKGRFDLYHEGHHHHHH", "soluble on expression in E. coli": "soluble"}
{"sequence": "MTTNRETVLSMAKRKRSVVAINASGWRSNGEVMGLQIKDGVLYKDYDAAGYTGAEACVFFDDGTMKVYGNREVDADILISKGARNSFAFGIWLVKDSKPRTAQMTTWADLNVKHPRQAIGQRSDGTLVIITVDGRSLRSSGITAYDMPSLFLSEGCINAFLLDGGGSSQTAVEGKYINNISDGIERAVVDTLTISYPDDLEHHHHHH", "soluble on expression in E. coli": "not soluble"}
{"sequence": "MSLSFFAHFSPLSGHQKQAAHQILPHLFLGSAAAARSATWLQQNRITHIVCVHNAEVSPHELKRQLTISHPAGDTRATSHHHRQQTVAGQLVVHPDRCVYCCCYVQDTPQQVFLPVLFPVMDFIDNAIRDQSFRGGSPSGAPHGNVLVHCAKGISRSASLVICYLMFRRCWSYADSFTYIRRKRPIYPNVGFQASILTQLLETQELVENMFSQSEGHHHHHH", "soluble on expression in E. coli": "not soluble"}
{"sequence": "MSLLLTNHIGYERLGPKKAIIQTEQPHLSSYTAQLICATSEQTVATFAVEEQGKVANWHQGYFYLIDFSSFTDSGDYFLQVEDSRSSTFTVGEHILLNQTLSDVIHYFKSQRCGGVFDQQDRQVPVLNANQTADVHGGWYDASGDVSKYLSHLSYANYLNPQQTPMVVWNILKGLSLLEGSEDIAAFTRTRLIEEALFGADFLVRMQNEKGFFYMTVFDKWSKDTAQREICAYETQLGHKFDDYQAGFRQGGGVAIAALAAASRLGVHGEYDQQKYRNAAENGYWHLKEHNTQYLNDGEENIIDEYCALLASVELFKATKETRYLEESRLWAQRLVARQMSDEQIQHFWSANQDGSRPYFHAAEAGLPTIALCEYLAIEDDSVQTESVKCIVNRACEFEIKISNKVTNPFGYPRQYVKGVNESKRDAFFVAHNNESGYWWQGENARLGSLATMAYLAQPHIASQEIQQQLSVFAQDALNWIVGLNPYDMCMLDGHGRNNPDYLPQYGFFNAKGGVCNGITGGFEDEEDIAFNPPAQKDDMLQNWRWGEQWIPHGAWYLLAIMSQAQHISQLATSKNIKEGHHHHHH", "soluble on expression in E. coli": "soluble"}
{"sequence": "MKFPGKRKSKHYFPVNARDPLLQQIQPENESSVSWVVGIDQTLVDIEAKVDEAFIVRYGLSAGHSLVIEDDVAEALYQELVRNNLITHQFAGGTIGNTMHNYSVLADDRSVLLGVMCSNIEIGGYAYRYLCNTSSRTDLNYLQGVDGAIGRCFTLIGDSGERTFAISPGHMNKLRPESIPEAVIAGASALVLTSYLVRCKPGEPMPDATMKAIEYAKKHDVPVVLTLGTKYVIADNPAWWQEFLQEHVSILAMNEEEGEALTGFADPLSAANKALDWVDLVLCTAGPAGLYMAGFTEEEAKRKTQHPLLPGAIPEFNQFEFSRAMRHQDCVNPLRIYSHIAPYMGGPEKIMNTNGAGDGALAALLHDITANNYHRNNVPNSSKHKCKWLTYSSLAQVCKYANRVSYQVLNQHSPRLTRGLPEREDSLEEAYWDR", "soluble on expression in E. coli": "not soluble"}
{"sequence": "MIPSVSPQQDALTGQPLRVVERDGVHYTLLGTAHISQASVAAVKQEVESGCYDAIAVELDAQRLQALCDPDTLAKLDLIQVIRKGQLALFAANLALAAYQRRLAKQLGIEPGAELKTAVTMARERDLPVHLIDREVGLTFKRASAKLGFLGKMKLGGGLIAGLFAADEVGEEEIEKLKQGDMLEASFGDFANESPELYQTIIAERDRYMATRLREEVNSATPKVLVVVGAGHLTGLAKHLENDTEPPTELRALLEKVQQKKR", "soluble on expression in E. coli": "not soluble"}
{"sequence": "MGSSHHHHHHGGTGENLYFQGGSGASTANASVDGSCPAMRDAADEALWAKLDEVQKLLANRSDAKELFTKYTVLRSVVGEVKPVFADSVRTRVKVFCEEPSFAAPEECDDFEPVSLHVVAYLNYKLFMEEMKELMVQARLLKSIGMEGSGLRFQRREQNIVAPGNEPRTGSSSKPSAQVSMHKPSYRPATLIPVGTLRLRRVSKASGAGKLTEVVAKIERVCVVKSARCFDVGRTLMRAAEKIARDAFHVRWALTYAQLSSKDFYTKAGYTPKDGRACMDLHMPHVVMVKCLVDASM", "soluble on expression in E. coli": "not soluble"}
{"sequence": "MGSDKIHHHHHHMHKFNPDRIQIGISACLLGEQVRFDGGHKNSAYCQQELKPHFDFVPVCPEMAIGLGAPRKSIRQVRIEGEIRVRSADGSIDVTEQLQSFCNNKADGLGFLGGYLFCSKSPTCGMERVPVYKADGSGGFKEGVGVFAAALMKRFPHLPVEEEGRLHDLVIRENFFTRVYAYHDWHCMRLKGLTRKALTDFHARYKYLLLSHSPAIYRTLGPLLAGDGELEAVADSYFDGFMTALRHKASRRNHTSALQHIQGYFKKFLSGSQKAELSDAILAYRQGVQPLLVPITLIRHYLREHPNDYIAAQVYLNPHPDSLRLRYAY", "soluble on expression in E. coli": "not soluble"}
{"sequence": "MSLASLIGLAVCTGNAFSPALAAEAKQPNLVIIMADDLGYGDLATYGHQIVKTPNIDRLAQEGVKFTDYYAPAPLSSPSRAGLLTGRMPFRTGIRSWIPSGKDVALGRNELTIANLLKAQGYDTAMMGKLHLNAGGDRTDQPQAQDMGFDYSLANTAGFVTDATLDNAKERPRYGMVYPTGWLRNGQPTPRADKMSGEYVSSEVVNWLDNKKDSKPFFLYVAFTEVHSPLASPKKYLDMYSQYMSAYQKQHPDLFYGDWADKPWRGVGEYYANISYLDAQVGKVLDKIKAMGEEDNTIVIFTSDNGPVTREARKVYELNLAGETDGLRGRKDNLWEGGIRVPAIIKYGKHLPQGMVSDTPVYGLDWMPTLAKMMNFKLPTDRTFDGESLVPVLEQKALKREKPLIFGIDMPFQDDPTDEWAIRDGDWKMIIDRNNKPKYLYNLKSDRYETLNLIGKKPDIEKQMYGKFLKYKTDIDNDSLMKARGDKPEAVTWGEGHHHHHH", "soluble on expression in E. coli": "soluble"}
{"sequence": "MSLAKISKIEAQKRKGRYNIYLDGKYAFPVAESVLIQFRLMKGTELDEKQIAAIATADQQAKAYSRMLDYLSYQMRTESDIVKKLKEIDTPEEFVEPILKKLRGQQLIDDHAYAASYVRTMINTDLKGPGIIRQHLRQKGIGESDIDDALTQFTPEVQAELAKKLALKLFRRYRNQPERRREQKVQQGLTTKGFSSSVYEMIKDEVVPQPDLEQENDLLAKEAAKQWRRVRRYQGYEREQHFKQTMYRKGFDLDDVQSWLDAQDEGHHHHHH", "soluble on expression in E. coli": "soluble"}
{"sequence": "MGSDKIHHHHHHMAVINPFVVGGYVSPRYFCDRVAETENLIRNLINGRNVALVSTRRMGKTGLIRHCFYQPLIKEGYYTFFIDIYATSSLKEFVFALGKGIFEKLKPQGNKFIDRFFSIITSLRIGFKLDSITGEPILELGLGDIHAPETTLEEIFIYLEQADKPCIVAIDEFQQISSYPEKNLEAILRTKVQHCSNSNFVFAGSQRHIMMNIFNSPSRPFYQSVSMMHLGAIPLEVYKPFVKGLFEENGKKVTDQLVENVYTLFDGHTWYVQLILNELFILTDKKGICDVPMINLALNNIIATQDFTFQEIFSRLPEKQKEIMIAIAKEQKAKGVTSAAFIKKYRLTSASSVQSGLKGLLEKDMLTQESGGYQVYDRLFNIWLRRNY", "soluble on expression in E. coli": "not soluble"}
{"sequence": "MALLVAKAYKIIDRIKDAESRPDRLTNKDAGDVYRLFMGFPAAGVAASWHALTSDQRVGEVSTTGLALLRELFAGPRSPGANMAVAALAGDVPEDRVRQVCRAYVNRLSA", "soluble on expression in E. coli": "not soluble"}
{"sequence": "MGSDKIHHHHHHMKRRLGLKLYYRRRGHVKPSLLFVIQSHKGEFVKDRLEEYLNNLKIEKKPDSRESWDSYFMRIARMVSERSTCVHRKVGAVIVKDHRILATGYNQPPSKFPHCNEIGCIRDDLEINSGEHQEICYALHAEQNALMQAAKFGIAVNGATIYVTHKPCSICARLIVNAGIKRVVYEKDYPDPLTDFFFKFTGVESVRFVGDEM", "soluble on expression in E. coli": "not soluble"}
{"sequence": "MGSDKIHHHHHHMKDLVYLNYAATSYKKFPATIEALTAYLAENQFMNYGRNAPLLREGLPLLETRQLLADFFQAPSAAQITFTNNATTSLNLALAGILQPGDHVITTMLEHHAVARPLHLLEKERGISVTYVACQKTGLLEVEDIQRAWRTNTKALVMTHASNVLGTILPIEECFQWAQQKGLLTILDAAQTAGFLPIKMTQMAIDVLAFTGHKSLYGLAGIGGLAFSERGAEAVKPLMAGGTGSHSNSFDQPSFLPDKFEAGTLNSLGILSLNSSIKELNKIGLAAIQKHERTLMQNFLNGLSGLPVTILGTKDVAQTVPVVSITLWNQEETIVAQQLAEQYGIMTRAGLHCAPLAHQTAGTLATGTLRFSFGWQTTPEEITWTIHALQELLI", "soluble on expression in E. coli": "not soluble"}
{"sequence": "MAGRVKWVTDIEKSVLINNFEKRGWIQVTENEDWNFYWMSVQTIRNVFSVETGYRLSDDQIVNHFPNHYELTRKDLMVKNIKRYRKELEKEGSPLAEKDENGKYLYLDFVPVTYMLPADYNLFVEEFRKSPSSTWIMKPCGKAQGKGIFLINKLSQIKKWSRDSKTSSFVSQSTKEAYVISVYINNPLLIGGRKFDLRLYVLVSTYRPLRCYMYKLGFCRFCTVKYTPSTSELDNMFVHLTNVAIQKHGEDYNHIHGGKWTVNNLRLYLESTRGREVTSKLFDEIHWIIVQSLKAVAPVMNNDKHCFECYGYDIIIDDKLKPWLIEVNASPSLTSSTANDRILKYNLINDTLNIAVPNGEIPDCKWNKSPPKEVLGNYEILYDEELAQGDGAERELRNRPGQPVGPRAGRSRDSGRSVLTTWK", "soluble on expression in E. coli": "not soluble"}
